Values joined by “and” are separate entries in the source; they are usually repeats but may differ in a detail not shown here. Identical values can stand only once.
Legend:
HEK293细胞裂解液 [1] = assay: sandwich ELISA, coat B2, detection biotin-B6, lysate 500 ug/ml
Vero细胞裂解液 [2] = assay: as above
CHO细胞裂解液 [3] = assay: as above
牛血清白蛋白(BSA) (bovine) [4] = target: 牛血清白蛋白(BSA) (bovine) (UniProt P02769); assay: indirect ELISA, BSA coated at 1 ug/ml, purified antibody at dilution 8K, HRP goat anti-mouse IgG
牛血清白蛋白(BSA) (bovine) [5] = target: 牛血清白蛋白(BSA) (bovine) (UniProt P02769); assay: sandwich ELISA, coat B2 2 ug/ml, BSA 0.75 ng/ml, detection biotin-B6 0.2 ug/ml
HEK293细胞裂解液 [6] = assay: sandwich ELISA, coat B2, detection biotin-B6, lysate 125 ug/ml
Vero细胞裂解液 [7] = assay: as above
CHO细胞裂解液 [8] = assay: as above
牛血清白蛋白(BSA) (bovine) [9] = target: 牛血清白蛋白(BSA) (bovine) (UniProt P02769); assay: indirect ELISA, BSA coated at 1 ug/ml, purified antibody at dilution 256K, HRP goat anti-mouse IgG
牛血清白蛋白(BSA) (bovine) [10] = target: 牛血清白蛋白(BSA) (bovine) (UniProt P02769); assay: indirect ELISA, BSA coated at 1 ug/ml, purified antibody at dilution 32K, HRP goat anti-mouse IgG
牛血清白蛋白(BSA) (bovine) [11] = target: 牛血清白蛋白(BSA) (bovine) (UniProt P02769); assay: sandwich ELISA, coat B2 2 ug/ml, BSA 48 ng/ml, detection biotin-B6 0.2 ug/ml
牛血清白蛋白(BSA) (bovine) [12] = target: 牛血清白蛋白(BSA) (bovine) (UniProt P02769); assay: indirect ELISA, BSA coated at 1 ug/ml, purified antibody at dilution 512K, HRP goat anti-mouse IgG
牛血清白蛋白(BSA) (bovine) [13] = target: 牛血清白蛋白(BSA) (bovine) (UniProt P02769); assay: ELISA, BSA coated at 1 ug/ml, biotin-labelled antibody at dilution 128K, HRP-avidin
牛血清白蛋白(BSA) (bovine) [14] = target: 牛血清白蛋白(BSA) (bovine) (UniProt P02769); assay: indirect ELISA, BSA coated at 1 ug/ml, purified antibody at dilution 64K, HRP goat anti-mouse IgG
牛血清白蛋白(BSA) (bovine) [15] = target: 牛血清白蛋白(BSA) (bovine) (UniProt P02769); assay: indirect ELISA, BSA coated at 1 ug/ml, purified antibody at dilution 1024K, HRP goat anti-mouse IgG
牛血清白蛋白(BSA) (bovine) [16] = target: 牛血清白蛋白(BSA) (bovine) (UniProt P02769); assay: sandwich ELISA, coat B2 2 ug/ml, BSA 12 ng/ml, detection biotin-B6 0.2 ug/ml
牛血清白蛋白(BSA) (bovine) [17] = target: 牛血清白蛋白(BSA) (bovine) (UniProt P02769); assay: sandwich ELISA, coat B2 2 ug/ml, BSA 12 ng/ml, detection biotin-B6 0.2 ug/ml, mean of A and B
HEK293细胞裂解液 [18] = assay: sandwich ELISA, coat B2, detection biotin-B6, lysate 62.5 ug/ml
Vero细胞裂解液 [19] = assay: as above
CHO细胞裂解液 [20] = assay: as above
牛血清白蛋白(BSA) (bovine) [21] = target: 牛血清白蛋白(BSA) (bovine) (UniProt P02769); assay: ELISA, BSA coated at 1 ug/ml, biotin-labelled antibody at dilution 4K, HRP-avidin
牛血清白蛋白(BSA) (bovine) [22] = target: 牛血清白蛋白(BSA) (bovine) (UniProt P02769); assay: sandwich ELISA, coat B2 2 ug/ml, BSA 1 ng/ml, detection biotin-B5 0.2 ug/ml
牛血清白蛋白(BSA) (bovine) [23] = target: 牛血清白蛋白(BSA) (bovine) (UniProt P02769); assay: sandwich ELISA, coat B2 2 ug/ml, BSA 3 ng/ml, detection biotin-B6 0.2 ug/ml, mean of A and B
牛血清白蛋白(BSA) (bovine) [24] = target: 牛血清白蛋白(BSA) (bovine) (UniProt P02769); assay: sandwich ELISA, coat B2 2 ug/ml, BSA 3 ng/ml, detection biotin-B6 0.2 ug/ml
牛血清白蛋白(BSA) (bovine) [25] = target: 牛血清白蛋白(BSA) (bovine) (UniProt P02769); assay: sandwich ELISA, coat B2 2 ug/ml, BSA 1 ng/ml (positive sample), detection biotin-B6 0.2 ug/ml
牛血清白蛋白(BSA) (bovine) [26] = target: 牛血清白蛋白(BSA) (bovine) (UniProt P02769); assay: ELISA, BSA coated at 1 ug/ml, biotin-labelled antibody at dilution 512K, HRP-avidin
HEK293细胞裂解液 [27] = assay: sandwich ELISA, coat B2, detection biotin-B6, lysate 31.25 ug/ml
Vero细胞裂解液 [28] = assay: as above
CHO细胞裂解液 [29] = assay: as above
牛血清白蛋白(BSA) (bovine) [30] = target: 牛血清白蛋白(BSA) (bovine) (UniProt P02769); assay: sandwich ELISA, coat B2 2 ug/ml, BSA 48 ng/ml, detection biotin-B6 0.2 ug/ml, mean of A and B
牛血清白蛋白(BSA) (bovine) [31] = target: 牛血清白蛋白(BSA) (bovine) (UniProt P02769); assay: sandwich ELISA, coat B2 2 ug/ml, BSA 24 ng/ml, detection biotin-B6 0.2 ug/ml, mean of A and B

Sequence of UniProt P02769 (P02769 25-607): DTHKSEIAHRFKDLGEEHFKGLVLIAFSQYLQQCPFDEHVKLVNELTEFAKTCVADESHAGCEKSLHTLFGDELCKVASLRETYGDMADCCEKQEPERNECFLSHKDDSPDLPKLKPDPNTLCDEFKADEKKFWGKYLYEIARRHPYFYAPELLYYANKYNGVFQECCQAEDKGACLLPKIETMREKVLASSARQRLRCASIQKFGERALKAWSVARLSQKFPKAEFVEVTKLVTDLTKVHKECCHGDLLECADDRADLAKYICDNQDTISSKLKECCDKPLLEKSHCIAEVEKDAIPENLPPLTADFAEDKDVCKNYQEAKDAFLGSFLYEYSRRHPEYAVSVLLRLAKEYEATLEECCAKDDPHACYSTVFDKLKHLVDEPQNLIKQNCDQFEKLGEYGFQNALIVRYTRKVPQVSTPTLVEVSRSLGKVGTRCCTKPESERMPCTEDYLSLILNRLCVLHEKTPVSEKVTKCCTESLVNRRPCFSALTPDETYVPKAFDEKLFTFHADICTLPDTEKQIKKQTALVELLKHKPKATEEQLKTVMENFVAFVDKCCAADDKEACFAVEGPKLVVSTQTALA

OD450 (HEK293细胞裂解液 [1]): 0.139
OD450 (Vero细胞裂解液 [2]): 0.134
OD450 (CHO细胞裂解液 [3]): 0.135
OD450 (牛血清白蛋白(BSA) (bovine) [4]): 0.728
OD450 (牛血清白蛋白(BSA) (bovine) [5]): 0.31 and 0.296
OD450 (HEK293细胞裂解液 [6]): 0.14
OD450 (Vero细胞裂解液 [7]): 0.132
OD450 (CHO细胞裂解液 [8]): 0.14
OD450 (牛血清白蛋白(BSA) (bovine) [9]): 0.208
OD450 (牛血清白蛋白(BSA) (bovine) [10]): 0.403
OD450 (牛血清白蛋白(BSA) (bovine) [11]): 2.2 and 2.21
OD450 (牛血清白蛋白(BSA) (bovine) [12]): 0.137
OD450 (牛血清白蛋白(BSA) (bovine) [13]): 0.821
OD450 (牛血清白蛋白(BSA) (bovine) [14]): 0.335
OD450 (牛血清白蛋白(BSA) (bovine) [15]): 0.144
OD450 (牛血清白蛋白(BSA) (bovine) [16]): 1.01 and 1
OD450 (平均值) (牛血清白蛋白(BSA) (bovine) [17]): 1
OD450 (HEK293细胞裂解液 [18]): 0.142
OD450 (Vero细胞裂解液 [19]): 0.137
OD450 (CHO细胞裂解液 [20]): 0.129
OD450 (牛血清白蛋白(BSA) (bovine) [21]): 2.02
OD450 (牛血清白蛋白(BSA) (bovine) [22]): 0.312 and 0.315
OD450 (平均值) (牛血清白蛋白(BSA) (bovine) [23]): 0.512
OD450 (牛血清白蛋白(BSA) (bovine) [24]): 0.509 and 0.515
OD450 (牛血清白蛋白(BSA) (bovine) [25]): 0.392 and 0.389
OD450 (牛血清白蛋白(BSA) (bovine) [26]): 0.308
OD450 (HEK293细胞裂解液 [27]): 0.134
OD450 (Vero细胞裂解液 [28]): 0.142
OD450 (CHO细胞裂解液 [29]): 0.136
OD450 (平均值) (牛血清白蛋白(BSA) (bovine) [30]): 2.21
OD450 (平均值) (牛血清白蛋白(BSA) (bovine) [31]): 1.5
B1: BSA抗体B2 (antibody, V domains shown)
VH: VKLQESGGGLVKPGGSLKLSCAASGFTFSLYDESWVRQTPEKRLEWVAEIFLGVYRYVPESKVRFTMSRDNAKNTLYLQMSSLRSEDTAMYYCVRLCYWEPEVKKCWGQGTTVTVSS
VL: DIELTQSPLTLSVTIGQPASISCESDLSLKESLDWLLQRPGQSPKRLIYEDLNADCGVPDRFTGSGSGTDSTLKISRVEAEDLGVYYCEIKGTFRWSFGGGTKLEIK

From CN114591430A
